Experimental data: the nanobody polyreactivity screen of Harvey et al. (2022)

Experiment: yeast display, Sf9 membrane polyspecificity reagent, FACS + sequencing; frameworks hold sequencing errors
Summary of the method: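 A synthetic nanobody library was expressed on Saccharomyces cerevisiae BJ5465 by galactose induction for 36–48 hours. The library was stained for 1 hour at 4 °C with 10% biotinylated, detergent-solubilized Sf9 membrane reagent and enriched with streptavidin microbeads before FACS. Low and high (top ~1%) gates were set on anti-HA fluorescence for expression and streptavidin fluorescence for reagent binding, and each polyreactivity label reflects the gate of origin.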

Sequence | polyreactivity (PSR sort gate)
QVQLVESGGGLVQAGGSLRLSCAASGSTFVRNARGWYRQAPGKERELVAAISRSGGRTYYADSVKGRFTISRDNAKNTVYLQMNSLKPEDTAVYYCAADGKSGYDYWGQGTQVTVSS | high polyreactivity
QVQLVESGGGLVQAGGSLRLSCAASGRIISSYAMVWYRQAPGKETELVAAISWDGGSTYYADSVKGRFTISRDNANNTVYLQMNSLKPEDTAVYYCATDATRPWYDYWGQGTQVTVSS | low polyreactivity
QVQLVESGGGLVQAGGSLRLSCAASGSIFPYYALGWYRQAPGKERELVAAISWSGTSTYYADSVKGRFTISRDNAKNTVYLQMNSLKPEDTAVYYCNAGYYHFYASGYDYWGQGTQVTVSS | low polyreactivity
QVQLVESGGGLVQAGGSLRLSCAASGRIFGHYAMGWYRQAPGKERELVASITDGTSTNYADSVKGRFTISRDNAKNTVYLQMNSLKPEDTADYYCAADDRLQFPRGDYCGQGTQVTVSS | low polyreactivity
QVQLVESGGGLVQAGGSLRLSCAASGITFSYNAMGWSRQAPGKERELVAAISSNSDSTYYADSVKGRFTISRDNAKNTVYLQMNSLKPEDTAVYYCAADSPDDPDYSGFYYWGQGSQVTVSS | low polyreactivity
QVQLVESGGGLVQAGGSLRLSCAATGRIFSLYAMGWYRQAPGKERELVASITRSGVRTYYADSVKGRFTISRDNAKNTVYLQMNSLKPEDTAVYYCAAPYLYSQGTYYRSSGMDYWGQGTQVTVSS | low polyreactivity
QVQIVESGGGLVQAGGSLRLSCAASGYIFPYYAMGWYRQAPGKERELVAGITTDGSSTYYADSVKGRFTISRDNAKNTVYLQMNSLNPEDTAVYYFYVYPGYTWGWYDYWGQGTQVTVSS | low polyreactivity
QVQLVESGVGLVQARGSLRLSCAASGITFNYYAMGWYRQAPGKESELVATINRSGGTTYYADSVKGRFTISRDKAKNTDYLQMNSLKQEDTAVYDCNARYTSLGRYHSGYEYWGQGTQVTVSS | high polyreactivity
QVQLVESGGGLVQAGGSLRLSCAPSGYTYSDYAMGWYRQAPAKERELVAGITGGGGTYYADSVKGRFTISRDNAKNTVYLQMNSLKPEDTAVYYCAAGRRHGFGYWGQGTQVTVSS | low polyreactivity
QVQLVESGGGLVQAGGSLRLSCAASGRIFHYNAMGWYRQAPRKERELVAAISTGGSTNYADSVKGRFTISRDNAKNTVYLQMNSLKPEDTAVYYCAADHPVTYPTSKFDYWGQGTQVTVSS | low polyreactivity
QVQLVESGGGLVQAGGSLRLSCAASGFTLRTYAMGWYRQAPGKERELVAAITVSGGTYYADSVKGRFTISRDNAKYTVYLQMNSLKPEDTAVYYCTAKRFGTGFDYWGQGTQVTVSS | low polyreactivity
QVQLVESGGGLVQAGGSLRLSCAASGITFQSNAMGWYRQAPGKERELVAAIDWRGDSTYYADSVKGRFTISRDNAKNTVYLQMNSLKPEDTAVYYCNADISGSGQWDGYDYWGQGTQVTVSS | low polyreactivity
QVKLVDSGGGLVQAGGSLRLSCAASGRTFWNYAMGWYRQAPGKERELVAVIRFSDGSTYYADSVKGRFTISRDNAKNTVYLQMNSLKPEDTAVYYCAAKGPRRWGSGFDYWGQGTQVTVSS | low polyreactivity
QVQLVESGGGLVQAGGSIRLSCAASGRTFARNAMGWYRKAPGKERELVAAISSSGGSTYYADSVKGRFTISRDNAKNTVYLQMNSLKPEDTAVYYCARYSSFTYDYWGQGTQVTVSS | high polyreactivity
QVQLVESGGGLVQAGGSLRLSCAASGRTFIYYAMGWYRQAPGKERELVARIRANGVSTYYADSVKGRFTISRDNAKNTVYLQMNSLKPEDTAVYYCAKGYFPSQYEYWGQGTQVTVSS | high polyreactivity
QVQLVESGGGLVQAGGSLRLRCAASGSTFGGYAMGWYRQAPGKERELVAAIANGDRTNYADSVKGRFIISRDNAKNTVYLQMNSLKPEDTAVYYCNKDGPSYSSYDNWGQGTQVTVSS | low polyreactivity
QVQLVESGGGLVQAGGSLRLSCAASGSIFYSYAMGWYRQAPGKERELVAGIRSDGNTNYADSVKGRFTISRDNAKNTVYLQMNSLKPEDTAVYYCARLRYFLLNGSLRYGTSDRDYWGQGTQVTVSS | high polyreactivity
QVQLVESGGGLVQAGGSLRISCAASGRIFYNNDMAWYRQAPGKERELVAAITVRGSITYYADSVKGRFTISRDNAKTTVYLHMNSLKPEDTAVYYCATEWVNRLYSWGQGTQVTVSS | low polyreactivity
QVQLVESGGGLVQAGGSLRLSCAASGRIFDDNTMGWSRQAPGKERELVAAISSGTSTYYADSVKGRFTISRDNAKNTVYLQMNSLKPEDTAVYYCAAVIKWTKDDYWGQGTQVTVSS | high polyreactivity
QVQLLESGGGLVQAGGRLRLSCAASRNTFRQTAMGWNRQAPGKETELVASITSGGSTYYADSVQGRFTISRDNAKNTVYLQMNSLNPEDTAVYYCASRYIRSASWFYRIYDYWGQGTQVTVSS | high polyreactivity
QFQLVESGGGLVQAGGSLRLSCSASGSIFVSNAMGRSRQAPGKERELVAAISSSGDSTYYADSVKGRFTISRDNAKNTFYVQMNSLKPEDNAVYYCAAVGPWWFPEYDYWGQGTQVTVSS | low polyreactivity
QGQLVESGGGLVQAGGSLRLSCAASGSTYPNNTMGWYREAPGKEWEFVAAITGDGGTTYYADSVKGRFTISRDNAKNTVYLQMNSLKPEDSAVYYCAVPYPAEGYGVDYWGQGTQVTVSS | low polyreactivity

Sequence | polyreactivity (PSR sort gate)
QVQLVESGGGLVQAGGSLRLSCAASGRTFYTYAMGWNRQAPGKEREFVAAITGSGGSTYYADSVKWRFTISRDNAKNTVYLQMTSLKPDDRAVYYCNAGSPGDVWYYYWGQGTQVTVSS | low polyreactivity
QVQLVESGGGLVQAGGSLRLSCAASGITFWAYAMGWYRQAPGKERELVAAITSGGSTNYADSVKGRFTISRDNAKNTVYLQMNSLKPEDTAVYYCAKNYRYYVFYDGFDYWGQGTQVTVSS | low polyreactivity
QVQLVESGGGLVQAGGSLRVSCAASGSTFSYNAMGWYRQAPGKERELVASINSRGGTTYYADTVKVRFTISRDNAKNTVYLQMKSLKPEDTAVYYCATDVYRLGEYDYWGQGTQVTVSS | low polyreactivity
QVQLVESGGGLVQAGVSLRLSCAASGSSLARNAMGWYRQAPGKERELVAAISRRSGSTYYADSVKGRFTFSRDNAKNTVYLQMNSLKPEDTAVYYCAKLGIVHQYDYWGQGTQVTVSS | low polyreactivity
QVQLVESGGGLVQAGGSLRLSCAASGSIFGSYALGWYRQAPGKERELVAAISKSGGNTYYADSVKGRFTISRDNAKNTVYLQMNSLKPEDTAVYYCAARYRFLRPKVNYWGQGTQVTVSS | high polyreactivity
QVQLVESGGGLVQAGGSLRLSCAASGRTLKWYAMGWDRQAPGKERELVAAISWSGGSTYYADSVKGRFTISRDNAKNTVYLQMNSLKPEDTSVYYCAVAVTSYSSKKLYYWGQGTQVTVSS | low polyreactivity
QVQLVESGGGLVQAGGSLRLSCAGSGFTFAYYAMGWYRQAPGKERELVAAITRGGGRTFYADSVKGRFTISRDNAKNTVYLQMNSLKPEDTAVYYCAAVKDTTNSRGYGYWGQGTQVTVSS | high polyreactivity
QVQLVESGGGLVQAGGSLRLSCAASGITYFEYAMGWYRQATGKETELVAGIRFSGSTTYYADSVKGRFTISRDNAKNTVYLQMNSLKPEDTAVYYCNVDYYSGLYDYDSWGQGTQVTVSS | low polyreactivity
QVQLVESGGGVVQAGGSLRLSCAGSGRTFPYYAVGWYRQAPGKERELVAVISSADSTNYADSVKGRFTISRDNAKNTVYLQMNSLKPEDTAVYYCADDAVYYGDDYWGQGTQVTVSS | low polyreactivity
QVQLVESGGGLVHAGGSLRLSCAASGSIFRRNAMGMSRQAPGKERELVASITSGASTYYADSVKGRFTISRDNAKNTVYIQMNSLKPEDTAVYYCAADIFVTAFASPMDYWGQGTQVTVSS | low polyreactivity
QVQLVESGGGLVQAGGSLRLSCAASGITFNVNAMGWYRQAPGKERELVARITTSGGSTSYADSVKGRFTISRDNAKNTVYLQMNSLKPEDTAVYYFAADRARYYSEYDYWGQGTQVTVSS | low polyreactivity
QVQLVESGGGLVQAGGSLRLSCAASGRTLHYYAMGWYRQAPGKERELVAAISRTGSTDYADSVKGRFTISRDNAKNTVYLQMNSLKPEDTAVYYCAAYYRYRSGRYYYWGQGTQVTVSS | high polyreactivity
QVQLVESGGGLVQAGGSLPLSCAASGSIFVGYAMGWYRQAPGKERELVAAITNSGGRTYYADSVKGRFTISRDNAKNTVYLQMNSLKPEDTAVYYCNRVTGKYRYWVGFEYWGQGTQVTVSS | high polyreactivity
QVQLVESGGGLVQAGGSLRLSCAASGSIFNAYDMGWYRQAPGKERELVAGISSSDSTYYADSVKGRFTISRDNAKNTVYLQMNSLIPEDTAVYYCAADPVFAAAYIHLYGIYDSWGQGTQVTVSS | low polyreactivity
QVQLVESGGGLVQAGGSLRLSCAASGSTFDQNTMGWYREAPGKERELVASITGGDSTNYADSVKGRFTISRDNAKNTVYLQMNSLKPEDTAVYYCAADKLYQPGIGDDYWGQGTQVTVSS | low polyreactivity
QVQLVESGGGLVQAGGSLRLSCAASGRIFRRNAMGWYRQAPGKEREFVATITSGGSTFYADSVKGRFTISRDNAKNTVYLQMNSLIPEDTAVYYCAAPYYNTPFHTPNYSWGQGTQVTVSS | low polyreactivity
QVQLVESGGGLVQAGGSLRLSCAASGRTLFYYTMGWYRQAPGKVRELVAAITTGGRTYYADSVKGRFTISRDNAKNTVYLQMNSLNPEDTAVYYCAAHTYYYPVGFNYWGPGTQVTVSS | low polyreactivity
QVQLVESRGGLVQAGGRLRLSCAASGLIFYKYAMGWYRPAHGKERQLVAAITSGGGSTYYADSVKGRFTISRDNAKNTVYLQKNSLKPEDSAVYYCAATRPATYAAYDYWGHGTQVTVSS | high polyreactivity
QVQLVESGGGLVQAGGSLRLSCAASGFTFSTNAMGWYRQAPGKERELVAAISKSGVSTYYADSVKGRFTISRDNAKNTVYLQMNSLKPEDTAVYYCAADPKIALYKVWRYDYWGQGTQVTVSS | high polyreactivity
QVQLVESGGGLVQAGGSLRLSCAASGRTFPVYAMGWYRQAPGKERELVATIRRRDGSTYADSVKGRFTISRDNAKNTVYLQMNSLKPEDTAVYYCNAAYSQATPWYYAWYDYCGQGTQVTVSS | high polyreactivity
QVQLVESGGGLVQAGGSLRLSCAASGRIFPHYSMGWYRQAPGKERELVAAISWSGSSTYYADSVKGRFTISRDNAKNTVYLQMNSLKPEDTAVYYCNAVRRGIGYDYGYWGQGTQVTVSS | high polyreactivity
